According to patent CN113683687A (EXCYTE BEIJING PHARMACEUTICAL TECH DEVELOPMENT CO LTD, dated 2021):

Molecular target: T1, 新型冠状病毒(2019-nCoV)Spike蛋白 (全长三聚体S蛋白) (新型冠状病毒(2019-nCoV), UniProt P0DTC2 16-1213)
T1 construct: also called 病毒S蛋白
Assay: Octet Blitz (BLI), scFv-Fc, apparent affinity

B1: CS2 (Fc fusion)
VH: EVQLVQSGAEVKKPGASVKVSCKASGGTFSSYAISWVRQAPGQGLEWMGGIIPIFGTANYAQKFQGRVTITADESTSTAYMELSSLRSEDTAVYYCARGSGDYGMDVWGQGTTVTVSS
VL: QSALTQPASVSGSPGQSITISCTGTSSDVGGYNYVSWYQQHPGKAPKLVISEVRNRPSGVSNRFSGSKSGNTASLTISGLQAEDEADYYCSSYTTRDTRVFGGGTQLTVL
notes: also called 抗体CS2
Kd: 2.1 nM

B2: CS3 (Fc fusion)
VH: EVQLVQSGAEVKKPGSSVKVSCKASGGTFSSYAISWVRQAPGQGLEWMGGIIPIFGTANYAQKFQGRVTITADKSTSTAYMELSSLRSEDTAVYYCARGSGDYGMDVWGQGTTVTVSS
VL: QSALTQPASVSGSPGQSITISCTGTSSDVGLYNYVSWYQQHPGKAPKLMVSEVSNRPSGVSNRFSGSKSGNTASLTISGLQAEDEADYYCSSYTTRDTRVFGGGTKVTVL
notes: also called 抗体CS3
Kd: 23.2 nM

B3: CS7 (Fc fusion)
VH: EVQLVQSGAEVKKPGSSVKVSCKASGGTFSSYAISWVRQAPGQGLEWMGGIIPILGIANYAQKFQGRVTITADKSTSTAYMELSSLRSEDTAVYYCARGSGDYSMDVWGQGTLVTVSS
VL: QSALAQPASVSGSPGQSITISCTGTSSDVGGYNYVAWYQQHPGKAPKLMIYEVSNRPSGVSNRFSGSKSGNTASLTISGLQAEDEADYYCSSYTTRDTRVFGGGTKLTVL
notes: also called 抗体CS7
Kd: 12.3 nM

B4: CS1 (Fc fusion)
VH: QVQLQQSGAEVKKPGSSVKVSCKASGGTFSSYAISWVRQAPGQGLEWMGGIIPIFGTANYAQKFQGRVTITADESTSTAYMELSSLRSEDTAVYYCARDRGVGRGYSYGFLPLDYWGQGTLVTVSS
VL: DIQMTQSPLSLPATPGEPASISCRSSQSLLHSDGYSYLHWYVQKPGQSPQLLISADSNRASGVPGRFSGSGSGTDFTLKISRVEAEDVGVYYCMQALQTPWTFGQGTKLDIK
notes: also called 抗体CS1
Kd: 1.2 nM
